Measurements as given in the supplement of paper PMC9170038.

System: MS2 coat protein
Experiment: apparent KD of MS2 coat protein; designed switch direction (-1 OFF switch, 1 ON switch): 1; higher = weaker reporter binding
In short: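 Designed RNA switches sharing common flanks were transcribed on Illumina chips by stalled E. coli RNA polymerase. They were titrated with SNAP-549-labelled MS2 coat protein, from 0.7 or 1.5 nM doubling to 3 µM, in Tris-HCl pH 7.5 buffer with KCl, MgCl2, BSA, DTT, tRNA and Tween-20. Titrations ran without input, with 200 uM small-molecule ligand, or with an oligonucleotide input. The apparent KD of each design is the median over its clusters, after curve-fitting of normalised cluster fluorescence.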

[1] = input ligand: microRNA oligo, concentration not stated
[2] = Eterna round: R95, input ligand: FMN 200 uM
[3] = Eterna round: R95, input ligand: microRNA oligo, concentration not stated
[4] = Eterna round: R95, input ligand: none

Sequence | apparent KD of MS2 coat protein [1] | apparent KD of MS2 coat protein [2] | apparent KD of MS2 coat protein [3] | apparent KD of MS2 coat protein [4] | apparent KD of MS2 coat protein (input ligand: FMN 200 uM) | apparent KD of MS2 coat protein (input ligand: none)
GUUACAUGAGGAUCACCCAUGUAUGUGUGGGAGUAAGUGUCUUAGGAUAUCUAUUAUUUAAUGUAAGAGAAGGAAGAUUGUUGU [JMF's solution 24] (Eterna round: R96, puzzle: Same State NG 3) | 0.106 µM | – | – | – | – | –
CAUAAUAAAACGGAGGAUAUGCUACCCUUCACAUGAGGAUCACCCAUGUUACCCUCUUAUUUUCAGUAGAAGGCCGAUACAUAAC [Delilah] (puzzle: Same State 2) | – | 0.0381 µM | 0.0319 µM | 0.0389 µM | – | –
AGCUUACAUGAGGAUCACCCAUGUUUUAGCCAGACAGGAUAUGGGUAUCUAAAACACAACCCAGAAGGGUCAAAAC [Usveriri] (puzzle: Same State 1) | – | 0.0575 µM | 0.233 µM | 0.489 µM | – | –
GGUCCAUCAUGAGGAUAUGGCACCUUAUUGGUGCCAGAAGGCAUGUCUAUGACAUGAGGAUCACCCAUGUAAAUAAAUUGGACC [Eli NG1ss - 94] (Eterna round: R96, puzzle: Same State NG 1) | 0.243 µM | – | – | – | 0.0323 µM | 0.232 µM
GCCACACAUGAGGAUCACCCAUGUAAUUACAUGGGAGGAUAUCAGUGCUCGAAAGAGCACUGAGAAGGCCUGUGGC [SS1 - Omei A v3] (puzzle: Same State 1) | – | 0.134 µM | 0.0896 µM | 0.0678 µM | – | –
ACACUUGCACAUGAGGAUCACCCAUGUUGACAAGCUUUUUGCUCGUCUUAUAGAACAAAGAAGAAGAACAACAGAAA [Victory 2] (puzzle: Sensor for hsa-mir-208a version 2) | – | 0.0207 µM | 0.0179 µM | 0.0219 µM | – | –
GGUGUACAUGAGGAUCACCCAUGUCGACCGCUCACAGGAUAUUUAAUACAAACUGGUAGCGGAGAAGGGUGAGGAA [Oresbeve] (Eterna round: R96, puzzle: Same State 1) | 0.16 µM | – | – | – | 0.523 µM | 0.188 µM
AUAAAACAUGAGGAUCACCCAUGUCAACAAAGUCUAGGAUAUGGGCAAAUAAAAUAAGAACCAGAAGGCGAAUAAU [salish99_ss1_r3_051] (puzzle: Same State 1) | – | 0.167 µM | 0.177 µM | 0.178 µM | – | –
UACAAUCUAUCUGAGGAUAUCAUGCAUUACACAUGAGGAUCACCCAUGUGCAGGAAAACUGCAUAUGAGAAGGCAGAUAGAUUGU [salish99_ss2_r3_066] (puzzle: Same State 2) | – | 0.0201 µM | 0.457 µM | 0.472 µM | – | –
GCUCGAUGAAAGUCCUACAUGAGGAUCACCCAUGUACGUGGGCAGGAUAUCUACAUGCAGAAUGUAGAGAAGGGCCCAUCGAGC [SameState NG3 #59] (Eterna round: R96, puzzle: Same State NG 3) | 0.0151 µM | – | – | – | 0.0104 µM | 0.0252 µM
CGUCCGGCCUGUGCUGGCCGGUAGCAUGUACAUGAGGAUCACCCAUGUUCAUGUGCAGGCUUUUUGCUCGUCUUGUG [salish99_mir208a_r3_007] (puzzle: Sensor for hsa-mir-208a) | – | 0.034 µM | 0.0123 µM | 0.0338 µM | – | –
AUCCUACAUGAGGAUCACCCAUGUGACGCCUCGAUAGGAUAUGCGUGUGCCUUGGCGCAUGCAGAAGGAUUGUUGC [JL Aveso mod 7] (puzzle: Same State 1) | – | 0.0692 µM | 0.0175 µM | 0.0271 µM | – | –
GGUCCAGCCUGAGCUGGACAAAAGCAUGUACAUGAGGAUCACCCAUGUUAUGUACAAGCUUUUUGCUCGUCUUAAAA [JL mod - D87 - 10] (Eterna round: R96, puzzle: Sensor for hsa-mir-208a) | 0.0122 µM | – | – | – | 0.183 µM | 0.188 µM
UCGAGCGUACUUGCAGACAUGAGGAUCACCCAUGUAAAUGGGAAGGAUAUGGUACCGUUUCGGUACCAGAAGGUCCUAAGUGCU [salish99_SSNG3_r04_304] (Eterna round: R96, puzzle: Same State NG 3) | 0.862 µM | – | – | – | 0.166 µM | 1.44 µM
GUUAGGAAUCUAGCGAACAUGAGGAUCACCCAUGUUAGUGGGAAGGAUAUGGUACAGAAACUGUACCAGAAGGUCUUAUUGUUU [Omei SS(NG) 3 AV11] (Eterna round: R96, puzzle: Same State NG 3) | 0.332 µM | – | – | – | – | –
AUUAUUUAUGCAGGAUAUGAUUAACAUGAGGAUCACCCAUGUGGUGUUGUGAGUAAGGAGAGUGAUCAGAAGGGCAUUGUUUUU [JMF's solution 46] (Eterna round: R96, puzzle: Same State NG 2) | 0.473 µM | – | – | – | 1.45 µM | 0.475 µM
UGGCCAGCCUGUGCUGGGCUUUUGCAUGUACAUGAGGAUCACCCAUGUCGUGUUCAUGCUUUUUGCUCGUCUUUAAA [Photon Torp-03] (puzzle: Sensor for hsa-mir-208a) | – | 0.0495 µM | 0.0163 µM | 0.0558 µM | – | –
AGUCCAGCCUGAGCUGGACAAAAGCAUGUACAUGAGGAUCACCCAUGUUCAUGUACAAGCUUUUUGCUCGUCUUACU [salish99_208a_r3_077] (puzzle: Sensor for hsa-mir-208a) | – | 0.618 µM | 0.0146 µM | 0.635 µM | – | –
